For experiment [1], the target named is recombinant mouse CD71 (Sino Biological Inc., Beijing, China) (mouse) (UniProt Q62351). The experiment in a line: plate binding to coated recombinant mouse CD71; EC50 of the conjugate against that of clone R17.
Experiment [2] has the same target. The experiment in a line: plate binding to coated recombinant mouse CD71, RiboGreen fluorescence detection of the conjugate's siRNA.
Experiment [3] concerns the target CD71 on primary hepatocytes. The experiment can be described thus: cell-based or functional assay.
Experiment [4] deals with recombinant mouse CD71 (Sino Biological Inc., Beijing, China) (mouse) (UniProt Q62351). The experiment can be described thus: plate binding to coated recombinant mouse CD71, Alexa Fluor 488 labeled secondary antibody, fluorescence.

pEC50: −log10 of the molar value.

UniProt Q62351, sequence (Q62351 89-763 limits assumed): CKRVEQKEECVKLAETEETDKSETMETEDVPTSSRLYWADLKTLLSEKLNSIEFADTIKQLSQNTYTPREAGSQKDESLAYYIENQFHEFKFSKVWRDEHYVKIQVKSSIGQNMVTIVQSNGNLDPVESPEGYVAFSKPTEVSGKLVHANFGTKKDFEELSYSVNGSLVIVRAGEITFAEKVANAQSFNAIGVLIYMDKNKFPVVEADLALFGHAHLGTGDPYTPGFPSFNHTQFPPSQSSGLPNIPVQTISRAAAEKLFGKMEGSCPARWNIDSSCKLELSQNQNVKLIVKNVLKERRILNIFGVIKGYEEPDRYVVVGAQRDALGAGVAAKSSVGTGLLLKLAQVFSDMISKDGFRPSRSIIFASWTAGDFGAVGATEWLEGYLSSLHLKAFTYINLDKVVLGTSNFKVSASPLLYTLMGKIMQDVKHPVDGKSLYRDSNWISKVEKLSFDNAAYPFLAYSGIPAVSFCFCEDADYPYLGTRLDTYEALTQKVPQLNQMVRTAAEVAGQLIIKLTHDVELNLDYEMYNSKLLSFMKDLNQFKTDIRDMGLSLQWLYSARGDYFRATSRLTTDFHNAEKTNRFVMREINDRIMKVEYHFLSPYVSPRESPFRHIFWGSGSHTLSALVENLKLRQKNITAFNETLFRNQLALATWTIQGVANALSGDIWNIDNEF

For the substance “clone R17 Fab'-siHPRT conjugate linked with the maleimide linker”, in experiment [1], the fold difference of EC50 between clone R17 and the conjugate was determined as 20 fold. Besides, the pEC50 (commonly −log10 of the EC50, conventionally taken in molar units) in experiment [2] was 7.54. In experiment [3], “clone R17 Fab'-siApoB conjugate linked with the maleimide linker” showed an EC50 in inhibiting of ApoB gene expression (primary hepatocytes, quantitative PCR) of 11 nM and a silencing of ApoB at 900 nM (primary hepatocytes, quantitative PCR) of 46%.

Take “anti-CD71 antibody (clone R17 217.1.3) purchased from Bio X Cell”: the pEC50 in experiment [4] was 8.82.

(Values after US20250082772A1.)
